Values of other authors, collected in paper PMC4046138.

Target: mesothelin (Homo sapiens) (UniProt Q13421)
Sequence of UniProt Q13421 (Q13421 other isoform, or with tags, fused parts or gaps): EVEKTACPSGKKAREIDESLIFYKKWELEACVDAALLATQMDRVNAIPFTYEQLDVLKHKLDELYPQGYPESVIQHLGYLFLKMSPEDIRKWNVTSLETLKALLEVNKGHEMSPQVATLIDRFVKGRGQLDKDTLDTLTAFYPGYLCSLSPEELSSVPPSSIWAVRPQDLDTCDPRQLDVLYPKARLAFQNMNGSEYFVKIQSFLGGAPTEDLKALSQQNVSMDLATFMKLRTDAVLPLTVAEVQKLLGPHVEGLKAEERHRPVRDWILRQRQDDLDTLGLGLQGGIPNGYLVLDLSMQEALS

Kd: 5 nM
Substance: MUC16 (from UniProt Q8WXI7)
